B1: MBP–Nab2p NLS [S. cerevisiae] / Kap104p [yeast (S. cerevisiae)] (parent)
chain 1: DNSQRFTQRGGGAVGKNRRGGRGGNRGGRNNNSTRFNPLAKALGMAGESNM
chain 2: MASTWKPAEDYVLQLATLLQNCMSPNPEIRNNAMEAMENFQLQPEFLNYLCYILIEGESDDVLKQHYSLQDLQNNRATAGMLLKNSMLGGNNLIKSNSHDLGYVKSNIIHGLYNSNNNLVSNVTGIVITTLFSTYYRQHRDDPTGLQMLYQLLELTSNGNEPSIKALSKIMEDSAQFFQLEWSGNTKPMEALLDSFFRFISNPNFSPVIRSESVKCINTVIPLQTQSFIVRLDKFLEIIFQLAQNDENDLVRAQICISFSFLLEFRPDKLVSHLDGIVQFMLHLITTVNEEKVAIEACEFLHAFATSPNIPEHILQPYVKDIVPILLSKMVYNEESIVLLEASNDDDAFLEDKDEDIKPIAPRIVKKKEAGNGEDADDNEDDDDDDDDEDGDVDTQWNLRKCSAATLDVMTNILPHQVMDIAFPFLREHLGSDRWFIREATILALGAMAEGGMKYFNDGLPALIPFLVEQLNDKWAPVRKMTCWTLSRFSPWILQDHTEFLIPVLEPIINTLMDKKKDVQEAAISSVAVFIENADSELVETLFYSQLLTSFDKCLKYYKKKNLIILYDAIGRFAEKCALDETAMQIILPPLIEKWALLSDSDKELWPLLECLSCVASSLGERFMPMAPEVYNRAFRILCHCVELEAKSHQDPTIVVPEKDFIITSLDLIDGLVQGLGAHSQDLLFPQGTKDLTILKIMLECLQDPVHEVRQSCFALLGDIVYFFNSELVIGNLEDFLKLIGTEIMHNDDSDGTPAVINAIWALGLISERIDLNTYIIDMSRIILDLFTTNTQIVDSSVMENLSVTIGKMGLTHPEVFSSGAFANDSNWNKWCLSVNALDDVEEKSSAYMGFLKIINLTSTEVTMSNDTIHKIVTGLSSNVEANVFAQEIYTFLMNHSAQISAINFTPDEISFLQQFTS
B2: MBP–Hrp1p NLS [S. cerevisiae] / Kap104p [yeast (S. cerevisiae)] (parent)
chain 1: RDRNDRDRDYNHRSGGNHRRNGRGGRGGYNRRNNGYHPYNR
chain 2: B1 chain 2

Some results are limits rather than exact numbers.

Assay in all cases: ITC
A general note: ITC needs no label: the signal is the heat of the interaction.

Variants of B1 are the subject of experiment [1]. To be noted: with Kap104p [yeast (S. cerevisiae)]; for ratio to parent: parent: 1; for dG: parent: -10.
The variants in experiment [2] derive from B2. To be noted: with Kap104p [yeast (S. cerevisiae)]; for Kd: parent: 32 nM; for ratio to parent: parent: 1.
Variants of B2 are the subject of experiment [3]. The conditions noted are these: with Kap104p [yeast (S. cerevisiae)].

For the variant chain 1 DNSQRFTQRGGGAVGKNAAGGAGGNAGGANNNSTRFNAAAKALGMAGESNM, the ratio to parent in experiment [1] was more than 200.

With chain 1 DNSQRFTQRGGGAVGKNRRGGRGGNRGGRNNNSTRLNPLAKALGMAGESNM, in experiment [1], the ddG is -0.3 kcal/mol, the screen value is -8.4 kcal/mol, the ratio to parent was 1.8 and the dG was -9.7 kcal/mol.

chain 1 DNSQRFTQRGGGAVGKNKKGGKGGNKGGKNNNSTRFNPLAKALGMAGESNM: in experiment [1], the ddG was -0.4 kcal/mol, the screen value was -9.9 kcal/mol, the ratio to parent was 0.6 and the dG is -10.3 kcal/mol.

For orientation: Kd means the constant that tells how readily two partners part at equilibrium. Consider chain 1 RDRNDRDRDYNHRSGGNHRRNGRGGRGGYNRRNNGAHPYNR, for which, in experiment [2], the Kd was 143 nM.

For the variant chain 1 RDRNDRDRDYNHRSGGNHRRNGRGGRGGYNRRNNGLHPYNR, the screen value in experiment [3] was -0.9 kcal/mol/K. Also, in experiment [2], the ddG was -0.02 kcal/mol, the screen value was -10.9 kcal/mol and the ratio to parent turned out to be 1.1.

As to chain 1 RDRNDRDRDYNHRSGGNHKKNGKGGKGGYNRRNNGYHPYNR, in experiment [3], the screen value was -2.8 kcal/mol/K. Besides, in experiment [2], the ddG was -0.05 kcal/mol, the screen value is -12.8 kcal/mol, the Kd turned out to be 36 nM and the ratio to parent came out at 1.1.

Turning to chain 1 RDRNDRDRDYNHRSGGNHARNGRGGRGGYNRRNNGAHPYNR, the screen value in experiment [3] was -2.2 kcal/mol/K. For the same variant, in experiment [2], the ddG was 0.4 kcal/mol, the screen value is -11.9 kcal/mol, the Kd was determined as 60 nM and the ratio to parent was 1.9.

In the case of chain 1 RDRNDRDRDYNHRSGGNHRRNGRGGRGGYNARNNGYHPYNR, the screen value in experiment [3] is -1.8 kcal/mol/K. Further, in experiment [2], the ddG is 0.07 kcal/mol, the screen value is -11.7 kcal/mol and the ratio to parent is 1.1.

chain 1 RDRNDRDRDYNHRSGGNHAANGAGGAGGYNRRNNGYHPYNR: in experiment [2], the Kd was determined as 194 nM.

Turning to chain 1 RDRNDRDRDYNHRSGGNHRRNGRGGRGGYNRANNGYHPYNR, in experiment [3], the screen value was -2.2 kcal/mol/K. In experiment [2], the ddG is -0.5 kcal/mol, the screen value is -12.7 kcal/mol and the ratio to parent came to 0.4.

The values above are taken from publication PMC2408616, “Modular Organization and Combinatorial Energetics of Proline–Tyrosine Nuclear Localization Signals” (PLoS Biology, 2008).
